Measurements reported in US8318488.
Each block holds one substance with its values, some of them ahead of it.

Columns and labels:
Assay in all cases: cell-based or functional assay
[1] = target: endothelin receptor B (ETB) (UniProt P48302)
[2] = target: calcium/calmodulin-dependent protein phosphatase calcineurin
[3] = target: endothelin receptor A (ETA) (UniProt Q61614)
Chain of endothelin receptor A (ETA) (Q61614 21-427 limits assumed): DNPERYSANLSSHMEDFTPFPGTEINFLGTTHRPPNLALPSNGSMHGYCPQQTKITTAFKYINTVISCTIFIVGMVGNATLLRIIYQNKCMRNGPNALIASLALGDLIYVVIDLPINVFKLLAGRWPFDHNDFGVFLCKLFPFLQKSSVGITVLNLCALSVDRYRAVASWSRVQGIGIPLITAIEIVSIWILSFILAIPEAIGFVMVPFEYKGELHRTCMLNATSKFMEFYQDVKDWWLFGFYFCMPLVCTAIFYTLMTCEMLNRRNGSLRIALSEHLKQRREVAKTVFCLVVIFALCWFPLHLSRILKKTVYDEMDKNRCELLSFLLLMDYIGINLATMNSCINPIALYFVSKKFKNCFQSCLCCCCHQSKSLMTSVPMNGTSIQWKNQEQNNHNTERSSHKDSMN

Chain of endothelin receptor B (ETB) (P48302 27-442 limits assumed): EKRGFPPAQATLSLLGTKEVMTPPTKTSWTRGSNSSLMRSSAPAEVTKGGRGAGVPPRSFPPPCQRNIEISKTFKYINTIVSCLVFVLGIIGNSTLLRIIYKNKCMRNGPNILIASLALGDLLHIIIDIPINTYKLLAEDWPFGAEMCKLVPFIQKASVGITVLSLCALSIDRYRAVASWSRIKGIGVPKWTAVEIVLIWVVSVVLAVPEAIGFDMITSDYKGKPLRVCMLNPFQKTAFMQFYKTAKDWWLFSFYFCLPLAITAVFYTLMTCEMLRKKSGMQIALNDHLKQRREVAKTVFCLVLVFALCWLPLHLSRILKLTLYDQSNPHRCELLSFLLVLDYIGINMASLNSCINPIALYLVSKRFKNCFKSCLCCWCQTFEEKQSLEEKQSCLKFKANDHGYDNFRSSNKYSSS

ANF expression (RT-PCR) after ET-1 stimulation, relative to ET-1 without compound (100%); BQ788 1 µM [1]: 70%
BNP expression (RT-PCR) after ET-1 stimulation, relative to ET-1 without compound (100%); BQ788 1 µM [1]: 70%
Substance: BQ-788 (peptide)

ANF expression (RT-PCR) after ET-1 stimulation, relative to ET-1 without compound (100%); cyclosporin A 1 µg/ml [2]: 70%
ANF expression (RT-PCR) after PE stimulation, relative to PE without compound (100%); cyclosporin A 1 µg/ml [2]: 70%
BNP expression (RT-PCR) after ET-1 stimulation, relative to ET-1 without compound (100%); cyclosporin A 1 µg/ml [2]: 50%
BNP expression (RT-PCR) after PE stimulation, relative to PE without compound (100%); cyclosporin A 1 µg/ml [2]: 70%
Substance: Cyclosporin A (peptide)

ANF expression (RT-PCR) after ET-1 stimulation, relative to ET-1 without compound (100%); BQ123 1 µM [3]: 50%
BNP expression (RT-PCR) after ET-1 stimulation, relative to ET-1 without compound (100%); BQ123 1 µM [3]: 60%
Substance: BQ-123 (peptide)
